Assay results taken from patent publication US20240400654A1.
Positions count from the first letter of the chain named. Numbers in names are those of the source. Where “and” joins values, the source holds several entries; their conditions need not be identical. Identical values can stand only once.

B1: KB001 mouse Fab variant VL L55R/S51G (Fab, V domains shown)
VH: EVQLKQSGPGLVAPSQSLSITCTVSGFSLSIYSVHWVRQPPGKGLEWLGMIWGGGSSDYNSALKSRLSISKDNSKSQVFLKMNSLQTDDTAMYYCARNGNFYAMDYWGQGTSVTVSS
VL: QIVLTQSPAIMSASLGERVTMTCTASSSVSSSFLHWYQQKPGSSPQLWIYGTSNRASGVPARFSGSGSGTSYSLTISSMEAEDAATYYCHQYHHSPYIYTFGGGTKLEIK
B2: KB001 mouse Fab variant VL A56T (Fab, V domains shown)
VH: B1 VH
VL: B1 VL with G51S, R55L, A56T
B3: KB001 mouse Fab variant VL L55S (Fab, V domains shown)
VH: B1 VH
VL: B1 VL with G51S, R55S
B4: KB001 mouse Fab variant VL L55H (Fab, V domains shown)
VH: B1 VH
VL: B1 VL with G51S, R55H
B5: KB001 mouse Fab variant VL L55Q (Fab, V domains shown)
VH: B1 VH
VL: B1 VL with G51S, R55Q
B6: KB001 mouse Fab VL T100K (Fab, V domains shown)
VH: B1 VH
VL: B1 VL with G51S, R55L, T100K
B7: KB001 mouse Fab VH K64H (Fab, V domains shown)
VH: B1 VH with K64H
VL: B1 VL with G51S, R55L
B8: KB001 mouse Fab VH A62E (Fab, V domains shown)
VH: B1 VH with A62E
VL: B1 VL with G51S, R55L
B9: KB001 mouse Fab VH A62I (Fab, V domains shown)
VH: B1 VH with A62I
VL: B1 VL with G51S, R55L
B10: KB001 mouse Fab VH A62D (Fab, V domains shown)
VH: B1 VH with A62D
VL: B1 VL with G51S, R55L
B11: KB001 mouse Fab VH S61R (Fab, V domains shown)
VH: B1 VH with S61R
VL: B1 VL with G51S, R55L
B12: KB001 mouse Fab VH S61G (Fab, V domains shown)
VH: B1 VH with S61G
VL: B1 VL with G51S, R55L
B13: KB001 mouse Fab VH S61Y (Fab, V domains shown)
VH: B1 VH with S61Y
VL: B1 VL with G51S, R55L
B14: KB001 mouse Fab VH S61W (Fab, V domains shown)
VH: B1 VH with S61W
VL: B1 VL with G51S, R55L
B15: KB001 mouse Fab VH L63V (Fab, V domains shown)
VH: B1 VH with L63V
VL: B1 VL with G51S, R55L
B16: KB001 mouse Fab VH A62G (Fab, V domains shown)
VH: B1 VH with A62G
VL: B1 VL with G51S, R55L
B17: KB001 mouse Fab VH A62V (Fab, V domains shown)
VH: B1 VH with A62V
VL: B1 VL with G51S, R55L
B18: KB001 mouse Fab VH A62R (Fab, V domains shown)
VH: B1 VH with A62R
VL: B1 VL with G51S, R55L
B19: KB001 mouse Fab VH L63Y (Fab, V domains shown)
VH: B1 VH with L63Y
VL: B1 VL with G51S, R55L
B20: KB001 mouse Fab VH A62H (Fab, V domains shown)
VH: B1 VH with A62H
VL: B1 VL with G51S, R55L
B21: KB001 mouse Fab VH A62L (Fab, V domains shown)
VH: B1 VH with A62L
VL: B1 VL with G51S, R55L
B22: KB001 mouse Fab VH S61K (Fab, V domains shown)
VH: B1 VH with S61K
VL: B1 VL with G51S, R55L
B23: KB001 mouse Fab VH S61C (Fab, V domains shown)
VH: B1 VH with S61C
VL: B1 VL with G51S, R55L
B24: KB001 mouse Fab VH S61L (Fab, V domains shown)
VH: B1 VH with S61L
VL: B1 VL with G51S, R55L
B25: KB001 mouse Fab VH L63H (Fab, V domains shown)
VH: B1 VH with L63H
VL: B1 VL with G51S, R55L
B26: KB001 mouse Fab VH K64M (Fab, V domains shown)
VH: B1 VH with K64M
VL: B1 VL with G51S, R55L
B27: KB001 mouse Fab VH A62Q (Fab, V domains shown)
VH: B1 VH with A62Q
VL: B1 VL with G51S, R55L
B28: KB001 mouse Fab VH A62N (Fab, V domains shown)
VH: B1 VH with A62N
VL: B1 VL with G51S, R55L
B29: KB001 mouse Fab VH K64Y (Fab, V domains shown)
VH: B1 VH with K64Y
VL: B1 VL with G51S, R55L
B30: KB001 mouse Fab VL T100D (Fab, V domains shown)
VH: B1 VH
VL: B1 VL with G51S, R55L, T100D
B31: KB001 mouse Fab VH L63F (Fab, V domains shown)
VH: B1 VH with L63F
VL: B1 VL with G51S, R55L
B32: KB001 mouse Fab VH K64G (Fab, V domains shown)
VH: B1 VH with K64G
VL: B1 VL with G51S, R55L
B33: KB001 mouse Fab VH A62M (Fab, V domains shown)
VH: B1 VH with A62M
VL: B1 VL with G51S, R55L
B34: KB001 mouse Fab VH S61H (Fab, V domains shown)
VH: B1 VH with S61H
VL: B1 VL with G51S, R55L
B35: KB001 mouse Fab VH S61M (Fab, V domains shown)
VH: B1 VH with S61M
VL: B1 VL with G51S, R55L
B36: KB001 mouse Fab VH K64I (Fab, V domains shown)
VH: B1 VH with K64I
VL: B1 VL with G51S, R55L
B37: KB001 mouse Fab VH K64V (Fab, V domains shown)
VH: B1 VH with K64V
VL: B1 VL with G51S, R55L
B38: KB001 mouse Fab VH S61F (Fab, V domains shown)
VH: B1 VH with S61F
VL: B1 VL with G51S, R55L
B39: KB001 mouse Fab VH K64S (Fab, V domains shown)
VH: B1 VH with K64S
VL: B1 VL with G51S, R55L
B40: KB001 mouse Fab VH L63M (Fab, V domains shown)
VH: B1 VH with L63M
VL: B1 VL with G51S, R55L
B41: KB001 mouse Fab VH A62F (Fab, V domains shown)
VH: B1 VH with A62F
VL: B1 VL with G51S, R55L

molecular target: HRgpA-6H (Porphyromonas gingivalis) (UniProt P28784); test: ELISA, FASEBA Fab supernatant on coated HRgpA-6H
Chain of UniProt P28784 (P28784 228-860 limits assumed): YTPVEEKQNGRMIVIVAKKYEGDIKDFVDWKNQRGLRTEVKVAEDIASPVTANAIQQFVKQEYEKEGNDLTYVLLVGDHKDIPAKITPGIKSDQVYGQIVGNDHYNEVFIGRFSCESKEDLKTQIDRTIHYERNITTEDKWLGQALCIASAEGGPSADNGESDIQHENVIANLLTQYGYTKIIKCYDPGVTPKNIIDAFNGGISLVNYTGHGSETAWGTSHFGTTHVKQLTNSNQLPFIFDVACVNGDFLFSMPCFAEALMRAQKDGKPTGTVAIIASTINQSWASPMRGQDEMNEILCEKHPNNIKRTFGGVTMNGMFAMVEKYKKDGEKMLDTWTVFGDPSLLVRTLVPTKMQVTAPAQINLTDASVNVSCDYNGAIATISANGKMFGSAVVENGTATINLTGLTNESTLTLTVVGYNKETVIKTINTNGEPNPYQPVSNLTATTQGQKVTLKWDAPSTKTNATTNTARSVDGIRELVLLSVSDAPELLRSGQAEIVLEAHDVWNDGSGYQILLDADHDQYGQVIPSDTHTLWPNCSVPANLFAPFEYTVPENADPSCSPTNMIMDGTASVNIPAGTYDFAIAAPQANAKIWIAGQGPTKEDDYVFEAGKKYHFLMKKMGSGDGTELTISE

Row | Binder | OD450 nm
1 | B1 | 0.748
2 | B2 | 0.731
3 | B3 | 0.655
4 | B4 | 0.64
5 | B5 | 0.662

molecular target: HRgpA-6H (Porphyromonas gingivalis) (UniProt P28784); test: ELISA on coated HRgpA-6H, OD relative to parental Fab

Row | Binder | Ratio OD(Variant)/OD(WT) [fold]
6 | B1 | 0.955
7 | B2 | 0.896
8 | B3 | 0.836
9 | B4 | 0.817
10 | B5 | 0.845

molecular target: HRgpA-6H (Porphyromonas gingivalis) (UniProt P28784); test: ELISA, coated HRgpA-6H

Row | Binder | OD450 nm | Ratio OD(Variant)/OD(WT)
11 | B6 | 0.625 | 1.19
12 | B7 | 0.752 | 0.909
13 | B8 | 0.854 | 0.977
14 | B9 | 0.702 and 0.808 | 0.803 and 0.924
15 | B10 | 0.853 and 0.851 | 0.976 and 0.974
16 | B11 | 0.438 | 0.888
17 | B12 | 0.46 and 0.476 | 0.932 and 0.965
18 | B13 | 0.423 | 0.857
19 | B14 | 0.435 and 0.429 | 0.881 and 0.869
20 | B15 | 0.784 and 0.77 and 0.778 | 0.897 and 0.881 and 0.89
21 | B16 | 0.813 and 0.785 | 0.93 and 0.898
22 | B17 | 0.742 and 0.757 | 0.849 and 0.866
23 | B18 | 0.733 and 0.847 and 0.809 | 0.839 and 0.969 and 0.926
24 | B19 | 0.836 and 0.846 and 0.801 | 0.957 and 0.968 and 0.916
25 | B20 | 0.819 and 0.834 and 0.844 | 0.937 and 0.954 and 0.966
26 | B21 | 0.812 | 0.929
27 | B22 | 0.49 | 0.993
28 | B23 | 0.431 | 0.873

Row | Binder | OD450 nm | Ratio OD(Variant)/OD(WT)
29 | B24 | 0.448 | 0.908
30 | B25 | 0.818 and 0.843 and 0.822 | 0.936 and 0.965 and 0.941
31 | B26 | 0.799 and 0.757 and 0.78 | 0.966 and 0.915 and 0.943
32 | B27 | 0.737 and 0.869 | 0.843 and 0.994
33 | B28 | 0.721 and 0.799 | 0.825 and 0.914
34 | B29 | 0.763 | 0.923
35 | B30 | 0.645 | 1.23
36 | B31 | 0.743 | 0.85
37 | B32 | 0.806 | 0.975
38 | B33 | 0.77 and 0.735 | 0.881 and 0.841
39 | B34 | 0.469 | 0.95
40 | B35 | 0.493 and 0.479 | 0.999 and 0.971
41 | B36 | 0.743 and 0.756 and 0.715 | 0.898 and 0.914 and 0.865
42 | B37 | 0.715 and 0.714 | 0.865 and 0.863
43 | B38 | 0.432 and 0.473 | 0.875 and 0.958
44 | B39 | 0.808 | 0.977
45 | B40 | 0.8 | 0.915
46 | B41 | 0.843 and 0.733 | 0.965 and 0.839
